Here are results for eleven molecules from patent US20180009871A1 (INTARCIA THERAPEUTICS, published 2018).

To fix the notation:
B1: Compound A25 (peptide)
peptide: YSHGTFTSDYSKYLD[Aib]KRAQEFV[Aib]WLEDEPSSGAPPPSS-OH
modifications: N-terminus assumed
SMILES: CC(C)C[C@H](NC(=O)[C@H](Cc1ccc(O)cc1)NC(=O)[C@H](CCCCN)NC(=O)[C@H](CO)NC(=O)[C@H](Cc1ccc(O)cc1)NC(=O)[C@H](CC(=O)O)NC(=O)[C@H](CO)NC(=O)[C@@H](NC(=O)[C@H](Cc1ccccc1)NC(=O)[C@@H](NC(=O)CNC(=O)[C@H](Cc1c[nH]cn1)NC(=O)[C@H](CO)NC(=O)[C@@H](N)Cc1ccc(O)cc1)[C@@H](C)O)[C@@H](C)O)C(=O)N[C@@H](CC(=O)O)C(=O)NC(C)(C)C(=O)N[C@@H](CCCCN)C(=O)N[C@@H](CCCNC(=N)N)C(=O)N[C@@H](C)C(=O)N[C@@H](CCC(N)=O)C(=O)N[C@@H](CCC(=O)O)C(=O)N[C@@H](Cc1ccccc1)C(=O)N[C@H](C(=O)NC(C)(C)C(=O)N[C@@H](Cc1c[nH]c2ccccc12)C(=O)N[C@@H](CC(C)C)C(=O)N[C@@H](CCC(=O)O)C(=O)N[C@@H](CC(=O)O)C(=O)N[C@@H](CCC(=O)O)C(=O)N1CCC[C@H]1C(=O)N[C@@H](CO)C(=O)N[C@@H](CO)C(=O)NCC(=O)N[C@@H](C)C(=O)N1CCC[C@H]1C(=O)N1CCC[C@H]1C(=O)N1CCC[C@H]1C(=O)N[C@@H](CO)C(=O)N[C@@H](CO)C(=O)O)C(C)C
B2: Compound A24 (peptide)
peptide: YSHGTFTSDYSKYLD[Aib]KRAQEFV[Aib]WLEDEPSSKGAPPPS-OH
modifications: N-terminus assumed
SMILES: CC(C)C[C@H](NC(=O)[C@H](Cc1ccc(O)cc1)NC(=O)[C@H](CCCCN)NC(=O)[C@H](CO)NC(=O)[C@H](Cc1ccc(O)cc1)NC(=O)[C@H](CC(=O)O)NC(=O)[C@H](CO)NC(=O)[C@@H](NC(=O)[C@H](Cc1ccccc1)NC(=O)[C@@H](NC(=O)CNC(=O)[C@H](Cc1c[nH]cn1)NC(=O)[C@H](CO)NC(=O)[C@@H](N)Cc1ccc(O)cc1)[C@@H](C)O)[C@@H](C)O)C(=O)N[C@@H](CC(=O)O)C(=O)NC(C)(C)C(=O)N[C@@H](CCCCN)C(=O)N[C@@H](CCCNC(=N)N)C(=O)N[C@@H](C)C(=O)N[C@@H](CCC(N)=O)C(=O)N[C@@H](CCC(=O)O)C(=O)N[C@@H](Cc1ccccc1)C(=O)N[C@H](C(=O)NC(C)(C)C(=O)N[C@@H](Cc1c[nH]c2ccccc12)C(=O)N[C@@H](CC(C)C)C(=O)N[C@@H](CCC(=O)O)C(=O)N[C@@H](CC(=O)O)C(=O)N[C@@H](CCC(=O)O)C(=O)N1CCC[C@H]1C(=O)N[C@@H](CO)C(=O)N[C@@H](CO)C(=O)N[C@@H](CCCCN)C(=O)NCC(=O)N[C@@H](C)C(=O)N1CCC[C@H]1C(=O)N1CCC[C@H]1C(=O)N1CCC[C@H]1C(=O)N[C@@H](CO)C(=O)O)C(C)C
B3: Compound A26 (peptide)
peptide: YSHGTFTSDYSKYLD[Aib]KRAQEFV[Aib]WLEDEPSSGAPPPSE-OH
modifications: N-terminus assumed
SMILES: CC(C)C[C@H](NC(=O)[C@H](Cc1ccc(O)cc1)NC(=O)[C@H](CCCCN)NC(=O)[C@H](CO)NC(=O)[C@H](Cc1ccc(O)cc1)NC(=O)[C@H](CC(=O)O)NC(=O)[C@H](CO)NC(=O)[C@@H](NC(=O)[C@H](Cc1ccccc1)NC(=O)[C@@H](NC(=O)CNC(=O)[C@H](Cc1c[nH]cn1)NC(=O)[C@H](CO)NC(=O)[C@@H](N)Cc1ccc(O)cc1)[C@@H](C)O)[C@@H](C)O)C(=O)N[C@@H](CC(=O)O)C(=O)NC(C)(C)C(=O)N[C@@H](CCCCN)C(=O)N[C@@H](CCCNC(=N)N)C(=O)N[C@@H](C)C(=O)N[C@@H](CCC(N)=O)C(=O)N[C@@H](CCC(=O)O)C(=O)N[C@@H](Cc1ccccc1)C(=O)N[C@H](C(=O)NC(C)(C)C(=O)N[C@@H](Cc1c[nH]c2ccccc12)C(=O)N[C@@H](CC(C)C)C(=O)N[C@@H](CCC(=O)O)C(=O)N[C@@H](CC(=O)O)C(=O)N[C@@H](CCC(=O)O)C(=O)N1CCC[C@H]1C(=O)N[C@@H](CO)C(=O)N[C@@H](CO)C(=O)NCC(=O)N[C@@H](C)C(=O)N1CCC[C@H]1C(=O)N1CCC[C@H]1C(=O)N1CCC[C@H]1C(=O)N[C@@H](CO)C(=O)N[C@@H](CCC(=O)O)C(=O)O)C(C)C
B4: Compound A23 (peptide)
peptide: YSHGTFTSDYSKYLD[Aib]KRAQEFV[Aib]WLEDEPSSKAPPPS-OH
modifications: N-terminus assumed
SMILES: CC(C)C[C@H](NC(=O)[C@H](Cc1ccc(O)cc1)NC(=O)[C@H](CCCCN)NC(=O)[C@H](CO)NC(=O)[C@H](Cc1ccc(O)cc1)NC(=O)[C@H](CC(=O)O)NC(=O)[C@H](CO)NC(=O)[C@@H](NC(=O)[C@H](Cc1ccccc1)NC(=O)[C@@H](NC(=O)CNC(=O)[C@H](Cc1c[nH]cn1)NC(=O)[C@H](CO)NC(=O)[C@@H](N)Cc1ccc(O)cc1)[C@@H](C)O)[C@@H](C)O)C(=O)N[C@@H](CC(=O)O)C(=O)NC(C)(C)C(=O)N[C@@H](CCCCN)C(=O)N[C@@H](CCCNC(=N)N)C(=O)N[C@@H](C)C(=O)N[C@@H](CCC(N)=O)C(=O)N[C@@H](CCC(=O)O)C(=O)N[C@@H](Cc1ccccc1)C(=O)N[C@H](C(=O)NC(C)(C)C(=O)N[C@@H](Cc1c[nH]c2ccccc12)C(=O)N[C@@H](CC(C)C)C(=O)N[C@@H](CCC(=O)O)C(=O)N[C@@H](CC(=O)O)C(=O)N[C@@H](CCC(=O)O)C(=O)N1CCC[C@H]1C(=O)N[C@@H](CO)C(=O)N[C@@H](CO)C(=O)N[C@@H](CCCCN)C(=O)N[C@@H](C)C(=O)N1CCC[C@H]1C(=O)N1CCC[C@H]1C(=O)N1CCC[C@H]1C(=O)N[C@@H](CO)C(=O)O)C(C)C
B5: Compound A22 (peptide)
peptide: YSHGTFTSDYSKYLD[Aib]KRAQEFV[Aib]WLEDEPSSGSPPPS-OH
modifications: N-terminus assumed
SMILES: CC(C)C[C@H](NC(=O)[C@H](Cc1ccc(O)cc1)NC(=O)[C@H](CCCCN)NC(=O)[C@H](CO)NC(=O)[C@H](Cc1ccc(O)cc1)NC(=O)[C@H](CC(=O)O)NC(=O)[C@H](CO)NC(=O)[C@@H](NC(=O)[C@H](Cc1ccccc1)NC(=O)[C@@H](NC(=O)CNC(=O)[C@H](Cc1c[nH]cn1)NC(=O)[C@H](CO)NC(=O)[C@@H](N)Cc1ccc(O)cc1)[C@@H](C)O)[C@@H](C)O)C(=O)N[C@@H](CC(=O)O)C(=O)NC(C)(C)C(=O)N[C@@H](CCCCN)C(=O)N[C@@H](CCCNC(=N)N)C(=O)N[C@@H](C)C(=O)N[C@@H](CCC(N)=O)C(=O)N[C@@H](CCC(=O)O)C(=O)N[C@@H](Cc1ccccc1)C(=O)N[C@H](C(=O)NC(C)(C)C(=O)N[C@@H](Cc1c[nH]c2ccccc12)C(=O)N[C@@H](CC(C)C)C(=O)N[C@@H](CCC(=O)O)C(=O)N[C@@H](CC(=O)O)C(=O)N[C@@H](CCC(=O)O)C(=O)N1CCC[C@H]1C(=O)N[C@@H](CO)C(=O)N[C@@H](CO)C(=O)NCC(=O)N[C@@H](CO)C(=O)N1CCC[C@H]1C(=O)N1CCC[C@H]1C(=O)N1CCC[C@H]1C(=O)N[C@@H](CO)C(=O)O)C(C)C
B6: Compound A27 (peptide)
peptide: YSHGTFTSDYSKYLD[Aib]KRAQEFV[Aib]WLEDEGGPSSGAPPPS-OH
modifications: N-terminus assumed
SMILES: CC(C)C[C@H](NC(=O)[C@H](Cc1ccc(O)cc1)NC(=O)[C@H](CCCCN)NC(=O)[C@H](CO)NC(=O)[C@H](Cc1ccc(O)cc1)NC(=O)[C@H](CC(=O)O)NC(=O)[C@H](CO)NC(=O)[C@@H](NC(=O)[C@H](Cc1ccccc1)NC(=O)[C@@H](NC(=O)CNC(=O)[C@H](Cc1c[nH]cn1)NC(=O)[C@H](CO)NC(=O)[C@@H](N)Cc1ccc(O)cc1)[C@@H](C)O)[C@@H](C)O)C(=O)N[C@@H](CC(=O)O)C(=O)NC(C)(C)C(=O)N[C@@H](CCCCN)C(=O)N[C@@H](CCCNC(=N)N)C(=O)N[C@@H](C)C(=O)N[C@@H](CCC(N)=O)C(=O)N[C@@H](CCC(=O)O)C(=O)N[C@@H](Cc1ccccc1)C(=O)N[C@H](C(=O)NC(C)(C)C(=O)N[C@@H](Cc1c[nH]c2ccccc12)C(=O)N[C@@H](CC(C)C)C(=O)N[C@@H](CCC(=O)O)C(=O)N[C@@H](CC(=O)O)C(=O)N[C@@H](CCC(=O)O)C(=O)NCC(=O)NCC(=O)N1CCC[C@H]1C(=O)N[C@@H](CO)C(=O)N[C@@H](CO)C(=O)NCC(=O)N[C@@H](C)C(=O)N1CCC[C@H]1C(=O)N1CCC[C@H]1C(=O)N1CCC[C@H]1C(=O)N[C@@H](CO)C(=O)O)C(C)C

Where no end group is shown, it is not given here. [ ]: non-standard residue; d: D form. Formula III = not defined here; Formula II = not defined here; Aib = CC(C)(N)C(=O)O

The first assay deals with human glucagon receptor (GCGR) (human, UniProt P47871 26-477). The experiment in a line: cell-based or functional assay.
In the case of B1, the “hGCGR pEC50 (cAMP)” value was 11.3 pEC50.
Turning to B2, the “hGCGR pEC50 (cAMP)” value was found to be 12.2 pEC50.
The same measure, in the same setting: the figure for B3 is 11.1 pEC50; for B4 it is 11.2 pEC50; for B5 it is 11 pEC50.
On to B6, for which the “hGCGR pEC50 (cAMP)” value amounted to 12.1 pEC50.

For another assay, the target named is human GLP-1 receptor (GLP-1R) (human, UniProt P43220 24-463). Description: cell-based or functional assay.
Target sequence in this assay (P43220 24-463): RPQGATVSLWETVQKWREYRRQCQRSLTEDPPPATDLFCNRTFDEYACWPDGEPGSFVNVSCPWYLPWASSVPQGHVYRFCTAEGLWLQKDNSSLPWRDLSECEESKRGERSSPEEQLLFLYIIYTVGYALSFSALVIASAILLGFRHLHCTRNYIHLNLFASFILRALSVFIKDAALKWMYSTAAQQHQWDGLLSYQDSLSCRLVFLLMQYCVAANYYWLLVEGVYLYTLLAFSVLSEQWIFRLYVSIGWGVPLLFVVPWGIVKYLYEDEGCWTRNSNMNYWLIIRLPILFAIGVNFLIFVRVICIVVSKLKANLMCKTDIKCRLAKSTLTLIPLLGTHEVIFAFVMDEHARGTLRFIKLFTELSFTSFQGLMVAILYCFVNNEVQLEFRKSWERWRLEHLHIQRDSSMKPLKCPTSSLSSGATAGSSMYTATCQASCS
With B1, the “hGLP1 pEC50 (cAMP)” value is < 9 pEC50.
In the case of B2, the “hGLP1 pEC50 (cAMP)” value was < 9 pEC50.
For B3, the “hGLP1 pEC50 (cAMP)” value was < 9 pEC50.
Turning to B4, the “hGLP1 pEC50 (cAMP)” value is < 9 pEC50.
Consider B5, for which the “hGLP1 pEC50 (cAMP)” value was < 9 pEC50.
The same measure, in the same setting: the figure for B6 is < 9 pEC50.

A further assay has the same target. Description: cell-based or functional assay. The source holds these as a separate data set.
Target sequence in this assay (P43220 24-463): as above
On to YSHGTFTSDK(Formula II)SKYLD[Aib]KYAQEFV[Aib]WLEDEPSSGAPPPS-OH (reading uncertain) [Compound B4], for which the “GLP-1R pEC 50” value is < 6 pEC50.
The same measure, in the same setting: the figure for YSHGTFTSDYSKYLD[Aib]KYAQEFV[Aib]WLEDEPSSK(Formula III)APPPS-OH (reading uncertain) [Compound B5] is < 6 pEC50; for YSHGTFTSDYSKYLD[Aib]KYAQEFVK(Formula III)WLEDEPSSGAPPPS-OH (reading uncertain) [Compound B6] it is < 6 pEC50.
The same measure, in the same setting: to YSHGTFTSDYSKYLD[Aib]KYAQEFVK(Formula II)WLEDEPSSGAPPPS-OH (reading uncertain) [Compound B2] belongs < 6 pEC50.
Same read-out and setting: to YSHGTFTSDYSKYLDK(Formula II)KYAQEFV[Aib]WLEDEPSSGAPPPS-OH (reading uncertain) [Compound B3] belongs < 6 pEC50.

For the next assay, the target named is human glucagon receptor (GCGR) (human, UniProt P47871 26-477). The experiment in a line: cell-based or functional assay. This is another data set of the same source.
On to YSHGTFTSDK(Formula II)SKYLD[Aib]KYAQEFV[Aib]WLEDEPSSGAPPPS-OH (reading uncertain) [Compound B4], for which the “GluR pEC 50” value is 9.1 pEC50.
For the molecule YSHGTFTSDYSKYLD[Aib]KYAQEFV[Aib]WLEDEPSSK(Formula III)APPPS-OH (reading uncertain) [Compound B5], the “GluR pEC 50” value was determined as 9.6 pEC50.
Same read-out and setting: to YSHGTFTSDYSKYLD[Aib]KYAQEFVK(Formula III)WLEDEPSSGAPPPS-OH (reading uncertain) [Compound B6] belongs 10.1 pEC50.
Same read-out and setting: to YSHGTFTSDYSKYLD[Aib]KYAQEFVK(Formula II)WLEDEPSSGAPPPS-OH (reading uncertain) [Compound B2] belongs 11.1 pEC50; to YSHGTFTSDYSKYLDK(Formula II)KYAQEFV[Aib]WLEDEPSSGAPPPS-OH (reading uncertain) [Compound B3], 11.4 pEC50.
